The record followed here is a protein production outcome set (Wang et al. 2014).

The data set is described as follows: label from the status in PepcDB records.
In the case of “MPKKLGPKSQRQRGAVAPLTQVQQAACSPTYKQAKRNARSYQGRRRRRRCSQNTTSRVPSQLQAVDSSSASCRTYKNSEELRSRIVSGIITPIHEQWEKANVSSPHREFPPATAREVDPLRIPPHHPHTSRQPPWCDPLGPFVVGGEDLDPFGPRRGGMIVDPLRSGFPRALIDPSSGLPNRLPPGAVPPGARFDPFGPIGTSPPGPNPDHLPPPGYDDMYL”, the protein production entry is “failed”.

As to “MPKLNLTSIDVLLSDDSDRRQLACKSNHSTVSSLPAMDSRESITSTSPEVAILLCTYHGQRYLPEQLASFEVQSHSNWKVWASDDGSEDGTHAILDAYSRKWPEGRLSICSGPSEGFAANFISLTCKDSIQADFYAYSDQDDIWNVNKLARAVQWLETVPVNIPALYCSRTRLVDSDDNEIGISPLFVRPPSFANALMQNIGGGNTMVFNNAARELFCEAGENTLVVAHDWWAYIAVTGCGGQVFYDREPTLRYRQHNGNLIGTNSNWSARFKRIHMLFQGEFRRWSDINIAALGALEHKLTPENREILQRFASGRKMSLIPRLIQFKRAGIYRQTLFSNFGLVVAAIFGKV”, the protein production result is on record as “failed”.

As to “MPKLTKRILDAAGARPTPYFLWCSDLKGFGVRIFPSGRRVYYADYRTAAGMRRRMSLGEHGKLTVDEARRLAITTLGDVIRGDDPIEERVTRRKSLTIAELCRRYLEAAGAGLVLGRGRKPKKATTLVSDRGRIEHHIVPLLGSRLVRDLTTAEVQRFVRDVQAGRTAKRYKTKARGMVLVEGGAGAAARTAGLLGGIMSYAIGEGVIALNPVRGVKRPADRKKDRRLSPEEYRALGRVLAEAEGDRESWQAVSSIQLLCLTGCRMREIANLRWTEVDFAGRCLRLDNTKEGRSIRPLGQAAVALLRQIEERRAGPYVLPATRGEGGFGGIPDAIERYSKRAGLPGIGAHTLRHSFASTAADLGCSDSTIGAMLGHAGHGVTSRYIHHLDAVLIMAADRVTTAMAGWLKDRYAERLEPAYPASRTVPLS”, the protein production result is reported as “failed”.

“MPKMIMVNKKASESQVMELEKRNYNNPVVLCGFAGSTPTGVLAASYIVETLGMHQVAHLISQHIPPVAVFVGGKLRHPFRIYANNSNTVLVAMCEVPISSAHIYEISNTLMNWIDQVGASEIVIMEGSPANGIPEERPVFAVAEKPKLDKFKKAGIQPADSAIIAGMGGGILNECLVRKITGLSFITPTSVDIPDPGAVLSIIEAINKAYNLKIKTDLLEEQVKALDEQIKKIEEQYKELQEKQKEPQSMYG”: the protein production result is given as “not failed”.

For the sequence “MPKNDLLLRSLRGEPIGRFPVWLMRQAGRYMPEYRKIRNRVKNFLELCKNVDLATEISLLPLKILGVDAIIIFSDILVPLEPLGVKVEFVEGEGPKLSWSGKVSDLKKYDPSQNAYVYEIIKRVKEAQDEVPVIGFAGAPFTLLSYLIEGGASKDFKSTKLFMWENPKEYKRLMDILTETVLAYLKEQIKAGADVVQIFDSWVNNLSLEDYGEYVYPYVNYLISELKDFSDTPVIYFFRGSSSFIDLAVDYRADALSVDWSVDIPELFKIYDKGFQGNLEPAVLYASEEVIEEKTLGLLRRIPVKTRYVFNLGHGLAPDMELEKVKYLVDLVKSFPLT”, the protein production entry was “not failed”.

For “MPKQTGNARNPFVLLALFILVCSGGCATYPISHDKAVPVARGALFEYPYFHDQVTGIAVSGQGRIFVNFPRWDKDPLYSVAEVLPDGSLRPYPDHGWNRWGADETAHPEAHFICVQSVFVDHSDFLWILDPASPAFNGVVPGGAKLVKVNLKTDQVERVIPFAPSAAPHESYLNDVRIDPEGNFAFITDSGKGAIVVVDLESGKARRLLSGHPSTKAEPGYVPVIEGKELRNEDGTVPKIHADGIALDSRGEYLYYHALVGRTLYRIRTSFLKDPSLPEKDLENHVERIAETGAADGMLMDAQDNLYLTALEENAVKRYRPSEPTLNTIIQGGLHWPDSLAISPDNYLYVTDSQINLAPRFNHGKDLRIIPYKFFKTWLMPFSHDGLLPP”, the protein production entry is “failed”.

With “MPKRRGHGEGTVYQRPDGRWTAQITVGIDHEGKQRRLTLYGKSKKEVLEKLTQALYQQQNGGFIEPSKITVEQWLNRWLTDYAKPHLRQSTWESYETVLRLHVIPTLGSIPLKKLQPADIQRLYASKLESGLSPTRVRYIHVVLHEAMSQARESGLLLQNPTEAAKPPRHPKKKVQPLNPEQVKRFLETAKQDPLYPAFLLALGTGLRRGEILGLRWQDLDLQKGILQVRQSLIRTREGLKFEEPKTEKSRRQIPLPPSVVAALKRHKAWVNQNKLILGPDYEDHDLVFPVENGRPRDPKGFAEYFNRLLDKAGLPHIRLHDLRHTHATLLLLEGVHPKVVQERLGHSTVSITLDIYSHILPGLQEKAAERIDGLLQPKENPSPKEGTIK”, the protein production result is reported as “failed”.

For the sequence “MPKSKEMEEEMKENSQDKNFMYKLAEFIVDKRNLFFLIYIIALVFCIFSRNWVKVENDVTKYLPDSTETRQGLTVMNDQFVTYGTAQVLLANISYDRAQEAADMIEDINGVTSVTFDNTEDHYKGTSALLDVTFDGEEEDQISIDAMNEIKDKLTGYDVYYSTSVANDDSANLESEMQVVTAIAAVIIVVVLLLTSKSYAEVPVLLITFIAAALLNMGTNFLLGTISFISNSVTIVLQLALAIDYAIILCHRYTEERENLPAREATITALSKAIPEISSSSLTTVSGLLALAFMQFKIGEDLAVVLIKAIILSLISVFTLMPGLIMVFSKWMDKTVHKNLIPSISAVGKFAIKTKYIIPPIFAAVIIVACVFANMCPYCFSTGSTSTPRKSESTIAQEKIDSTFGSRNMIALVVPAGNYEAEKNLLADLDACDEVKSTQGLANTEAMDGYMLTDSLTPREFSELVGLDYEVAQLLYSAYAINQENYGEVINSSSKYSVPLIDMFEFLLDEIDKGYVTLEGDLKDQMDDLSGQLDKALLQLKTDDYSRLVVYLNLPEEGDETFAFLDRVHEMMAKYYTDNYYVVGNSTSDYDLSSSFSRDNLVISILSALFVIIILLFTFKSAGLPVLLILVIQGSIWINFSFPYLMDSPLYFLGYLVVNSIQMGANIDYAIVISSRYDDLKKQLPIKEAIIETLNQAFPTIITSGSILAAAGILISFLSTNGVISAIGTCLGRGTIISIILVMGVLPQILYLGDVIIEKTRFSINTDNLIQNTGGTMVINGRMRGYVSGIIDAEIHGVIKGEVKGQIDVNNIDVIKKEEPEDGGDGNEEA”, the protein production entry is “failed”.

As to “MPKSPHKLFKANSFWKENNLILREIKHFRKIAILAVIFSFLAASFEGVSIGFLLSFLQKLTSPNDPIQTGISWVDMILAADAWPIPPIYRISLLILLSTWMRATFNYFGGVYTESAQLNLADRLHKQIFEQLQALRLSYFAQTRSGELINTITTEIERIKQGFSGLAFVLTRIMTVCVYFVVMFSISWQLSIISVLIFLLLAVGLSTLNKRVRETSFGISHANAQFTAVAVEFINGIRTIQAFGTQEFERQRFYKASTNQLNAAIKVVLAWTLVKPIAEGIATTVLISLIVISFATFTLPVASLLTFFFVLVRVIPNIQDINGTVAFLSTLQGSSENIKNILQTNNKPYLKNGKLHFQGLKRSIDLVSVDFGYTADNLVLNNITLTIERGKTTALVGASGAGKTTLADLIPRFYDPTEGQILVDGLDVQYFEINSLRRKMAVVSQDTFIFNTSIRDNIAYGTSGASEAEIREVARLANALQFIEEMPEGFDTKLGDRGVRLSGGQRQRIAIARALLRDPEILILDEATSALDSVSERLIQESIEKLSVGRTVIAIAHRLSTIAKADKVVVMEQGRIVEQGNYQELLEQRGKLWKYHQMQHESGQTNS”, the protein production result is “failed”.

“MPKTLLIPGLDGSPAAHWQQWWALRDPDALLLDLSDVSRPVPAVWEIEVAGAILQHPGAILVGHSLGAILIARLLAKWPHLKVGGAILVAPAEPRHSDRTESFGPIFEESLGVPAYVVSSRNDPWMSFTQAERLARAWRADVVDLGFAGHINVDSGFGPWPGGVVLRDELARRPVP”: the protein production entry is “failed”.

Take “MPLELVVIHSYKSSDMKPYLLSAFAAILSTSAMAYDVKSGGKTSVKKDGANAYSLPATNLPMSKRLDFSVGNSFFRNPWVQAPATTDARDGLGPLFNTNGCQNCHIKDGRGHPPEKDDIHAVSMLVRLSIPAMTPKQKKAYIMDGGIPEPTYGGQLQDFALQDQTPEGKIAITYTDVPVEFKDGSKVTLRKPTLKITDLGYGDMHPDTQFSARVAPPMIGLGLLESIPDETLLKWADENDSDSDGISGKVNKVWDIEKGDFSLGRFGWKAGQPTLMQQNAAAFNGDVGLTSHLFPNENCTAKQSLCEELPNGGKPEVSQNILDFVEFYSQHLAVPIRRNVNDPDVQLGQKIFAASGCESCHKTSVKTTKRADRPALSEQLIHPYTDLLLHDMGEGLADHRPEYLANGREWRTPPLWGIGYTEEVNGHTYFLHDGRARNLMEAVLWHGGEAEQAKQNVLSLNQKERDALIAFLNSL”: the protein production result is recorded as “failed”.
